Molecular target: T1, OC183B2 (antigens associated with ovarian carcinoma) (human)
T1 construct: It is treated here as a protein antigen; also called HRP-OC183B2
Experiment: direct ELISA; plate coated with bispecific antibody, HRP-OC183B2 added, read at 492 nm
Method: The antigen-binding activity of anti-ovarian carcinoma scFv in bispecific antibody was assayed by direct ELISA. ELISA plate was coated with bispecific antibody at 4° C. overnight. Wells coated with anti-ovarian monoclonal antibody were set as positive control. Plate was washed 3 times with PBST (PBS-0.05% Tween 20) for 5 min. HRP-OC183B2 diluted in 3% goat serum was added and incubate at 37° C. for 1 h. After washing plate 3 times with PBST, the substrate of HRP was added and incubated for 20 min at room temperature in the dark. 2M H2SO4 was added to stop the reaction. All the values of OD492 of bispecific antibody were 2.5 times higher than those of negative control and changed with gradient among the different dilution of bispecific antibody.

B1: anti-human ovarian carcinoma x anti-human CD3 bispecific antibody (bispecific antibody, not shown: a dimerising Fc or GST)
chain: EVQLQESGPEVKKPGETVRISCKASGYTFTTAGMQWVQKMPGKGLKWLGWINTNSEVPKYAEDFRGRFAFSLETSASTAYLQISNLKNEDTATFFCARSFTWGTMDYWGQGTTVTVSSGGGGSGGGGSGGGGSDVVMTQTPLSLPVSLGDQASISCRSSQTLVHSIGNTYLHWYLQKPGQSPKLLIYKVSNRFSGVPDRFSGSGSGTDFTLKISRVEAEDLGVYFCSQSTHVPYTFGGGTKLELKEIVLTQSPATLSLSPGERATLSCSASSSVSYMNWYQQKPGQAPRRWIYDTSKLASGIPARFSGSGSGTDFTLTISSLEPEDFATYYCQQWSSNPFTFGGGTKVEIKRGGGGSGGGGSGGGGSQVQLVQSGAEVRKPGASVRVSCKASGYTFTRYTMHWVRQAPGHGLEWIGYINPSRGYTNYNQKFKDRVTMTTDKSFSTAIMDLRSLRSDDSAVYYCARYYDDHYCLDYWGQGTTVTVSSHHHHHH
notes: Single polypeptide expressed from pAMAB in E. coli G1724, about 52 kDa; Order: anti-ovarian scFv, interlinker, anti-CD3 reshaped scFv, 6 His; also called BsAb; ScBsAb
- OD492 relative to negative control: 2.5 times
